According to US20150152192A1 (SAMSUNG ELECTRONICS, published 2015):

Assays:
Test in all cases: ELISA, scFv coated, 250 ng FLAG-tagged Ang2 mutant, anti-FLAG-HRP
[1] = biological target: T1, Ang2 with I434 mutated with alanine, tagged with FLAG (human, UniProt O15123 19-496, limits assumed)
T1 sequence: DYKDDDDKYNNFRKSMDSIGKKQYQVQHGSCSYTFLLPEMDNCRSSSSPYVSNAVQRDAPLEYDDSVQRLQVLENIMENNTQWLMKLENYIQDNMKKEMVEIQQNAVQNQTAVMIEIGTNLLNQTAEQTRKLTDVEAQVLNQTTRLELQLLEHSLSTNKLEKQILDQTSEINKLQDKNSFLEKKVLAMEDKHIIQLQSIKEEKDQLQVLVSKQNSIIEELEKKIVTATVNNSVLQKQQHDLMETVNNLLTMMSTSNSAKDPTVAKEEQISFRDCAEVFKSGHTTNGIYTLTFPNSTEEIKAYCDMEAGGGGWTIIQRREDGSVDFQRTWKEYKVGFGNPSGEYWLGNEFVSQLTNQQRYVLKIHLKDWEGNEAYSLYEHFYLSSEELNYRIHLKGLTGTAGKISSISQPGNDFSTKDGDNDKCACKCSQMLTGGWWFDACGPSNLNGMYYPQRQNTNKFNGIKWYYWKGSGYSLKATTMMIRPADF
Experimental: (§1) A 96-well MaxiSorp™ flat-bottom plate (Nunc) was coated with 50 μl of the anti-Ang2 scFv selected above. After that, the plate was washed five times with 0.05% (v/v) Tween-20-containing PBS and then blocked with 1% (v/v) BSA-containing PBS at a room temperature for 2 hours. […] Thereafter, the plate was washed five times with 0.05% Tween-20-containing PBS and then, an HRP-conjugated anti-FLAG antibody (SIGMA) diluted in 1% (v/v) BSA-containing PBS at 1:5,000 ratio (v/v) was added in the amount of 50 μl to each well to react at a room temperature for 1 hour, followed by washing five times with 0.1% (v/v) Tween-20-containing PBS.
(§2) Finally, 100 μl of TMB substrate (cell signal) was added to each well of the plate to induce color development and then, the reaction was ceased by the addition of 50 μl of 5N H₂SO₄ solution and OD450 values were measured on a plate reader (Molecular Devices).

[2] = biological target: T2, Ang2 with Y460 mutated with alanine, tagged with FLAG (human, UniProt O15123 19-496, limits assumed)
T2 sequence: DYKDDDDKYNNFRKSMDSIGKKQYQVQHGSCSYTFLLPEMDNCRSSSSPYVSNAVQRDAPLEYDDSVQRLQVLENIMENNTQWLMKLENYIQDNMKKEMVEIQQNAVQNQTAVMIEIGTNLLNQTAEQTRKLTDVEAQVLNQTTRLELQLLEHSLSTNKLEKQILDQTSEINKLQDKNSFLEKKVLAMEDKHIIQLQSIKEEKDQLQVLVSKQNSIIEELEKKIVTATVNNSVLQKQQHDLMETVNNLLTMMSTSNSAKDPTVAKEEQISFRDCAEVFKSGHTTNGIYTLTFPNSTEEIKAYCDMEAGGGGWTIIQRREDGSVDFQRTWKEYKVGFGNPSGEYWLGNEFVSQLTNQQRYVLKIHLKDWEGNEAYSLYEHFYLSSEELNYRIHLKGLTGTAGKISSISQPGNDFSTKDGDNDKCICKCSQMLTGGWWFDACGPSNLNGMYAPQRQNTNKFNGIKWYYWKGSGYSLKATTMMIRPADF
Experimental: as §1, §2

[3] = biological target: T3, Ang2 with N467 mutated with alanine, tagged with FLAG (human, UniProt O15123 19-496, limits assumed)
T3 sequence: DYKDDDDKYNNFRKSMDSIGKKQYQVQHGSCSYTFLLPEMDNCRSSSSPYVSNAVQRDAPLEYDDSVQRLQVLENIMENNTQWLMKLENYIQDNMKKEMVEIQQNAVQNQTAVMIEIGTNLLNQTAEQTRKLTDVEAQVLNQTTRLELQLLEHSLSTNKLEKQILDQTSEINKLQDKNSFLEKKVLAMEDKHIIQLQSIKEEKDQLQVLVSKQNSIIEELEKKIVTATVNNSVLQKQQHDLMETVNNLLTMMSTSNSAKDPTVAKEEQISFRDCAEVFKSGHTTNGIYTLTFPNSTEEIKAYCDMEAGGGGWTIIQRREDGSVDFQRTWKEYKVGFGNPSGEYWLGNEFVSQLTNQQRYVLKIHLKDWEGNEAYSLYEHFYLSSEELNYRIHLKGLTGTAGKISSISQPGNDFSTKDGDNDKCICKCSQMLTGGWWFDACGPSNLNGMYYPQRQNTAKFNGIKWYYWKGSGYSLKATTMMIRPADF
Experimental: as §1, §2

[4] = biological target: T4, Ang2 with F469 mutated with alanine, tagged with FLAG (human, UniProt O15123 19-496, limits assumed)
T4 sequence: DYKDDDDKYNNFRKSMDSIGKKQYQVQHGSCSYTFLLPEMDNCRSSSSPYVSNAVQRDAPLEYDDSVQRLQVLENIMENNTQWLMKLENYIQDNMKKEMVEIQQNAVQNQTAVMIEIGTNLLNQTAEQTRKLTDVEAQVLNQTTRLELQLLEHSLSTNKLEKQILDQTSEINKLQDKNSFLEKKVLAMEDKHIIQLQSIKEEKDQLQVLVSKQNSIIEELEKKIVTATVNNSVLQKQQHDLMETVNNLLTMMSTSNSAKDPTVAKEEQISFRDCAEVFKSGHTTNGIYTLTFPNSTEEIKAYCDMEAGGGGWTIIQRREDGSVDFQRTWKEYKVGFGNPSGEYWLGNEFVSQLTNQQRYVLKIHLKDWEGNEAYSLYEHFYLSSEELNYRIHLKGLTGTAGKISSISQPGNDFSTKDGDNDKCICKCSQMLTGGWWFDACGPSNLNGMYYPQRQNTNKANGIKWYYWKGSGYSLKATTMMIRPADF
Experimental: as §1, §2

Binder	Relative binding (%) with Mutant Ang2 compared to the binding with native Ang2 [1]	Relative binding (%) with Mutant Ang2 compared to the binding with native Ang2 [2]	Relative binding (%) with Mutant Ang2 compared to the binding with native Ang2 [3]	Relative binding (%) with Mutant Ang2 compared to the binding with native Ang2 [4]
SAIT-ANG-2-AB-2-E6 (scFv form) (scFv, V domains shown, scFv from a phage display library, partly purified from E. coli periplasm on Ni-NTA and detected with anti-HA) VH: EVQLLESGGGLVQTGGSLRLSCAASGFTFSDYAMSWVRQAPGKGLEWVSAIYPDSGNKYYADSVKGRFTISRDNSKNTLYLQMNSLRAEDTAVYYCARHSSDPKVKSGYYDDGMDVWGQGTLVAVSS VL: QSVLTQPPSASGTPGQRVTISCSGSSSNIGNNAVNWYQQLPGTAPKLLIYADSNRPSGVPDRFSGSKSGTSASLAISGLRSEDEADYYCGSWDYSLSGYVFGGGTKLTVLG	5.3%	40%	72.1%	112%
SAIT-ANG-2-AB-3-D3 (scFv form) (scFv, V domains shown, scFv from a phage display library) VH: EVQLLESGGGLVQPGGSLRLSCAASGFTFSDYDMSWVRQAPGKGLEWVSGISSDDGNTYYADSVKGRFTISRDNSKNTLYLQMNSLRAEDTAVYYCARPTIDKYTLRGYYSYGMDVWGQGTLVTVSS VL: QSVLTQPPSASGTPGQRVTISCTGSSSNIGSNYVSWYQQLPGTAPKLLIYSDNKRPSGVPDRFSGSKSGTSASLAISGLRSEDEADYYCGTWDDSLNGYVFGGGTKLTVLG	93.4%	95.1%	90.9%	96.4%
SAIT-ANG-2-AB-7-C9 (scFv form) (scFv, V domains shown, scFv from a phage display library) VH: EVQLLESGGGLVQPGGSLRLSCAASGFTFSNYAMSWVRQAPGKGLEWVSAISSGGGNIYYADSVKGRFTISRDNSKNTLYLQMNSLRAEDTAVYYCAKSGIQPSPPSMSSAYAMDVWGQGTLVTVSS VL: QSVLTQPPSASGTPGQRVTISCSGSSSNIGNNDVYWYQQLPGTAPKLLIYANSHRPSGVPDRFSGSKSGTSASLAISGLRSEDEADYYCGTWDYSLSGYVFGGGTKLTVLG	8.7%	78.1%	86.6%	89.4%
SAIT-ANG-2-AB-4-F11 (scFv form) (scFv, V domains shown, scFv from a phage display library) VH: EVQLLESGGGLVQTGGSLRLSCAASGFTFSDYAMSWVRQAPGKGLEWVSSIYPDDGNTYYADSVKGRFTISRDNSKNTLYLQMNSLRAEDTAVYYCAKHPVRLNLHPMYYYYGMDVWGQGTLVTVSS VL: QSVLTQPPSASGTPGQRVTISCTGSSSNIGNNAVSWYQQLPGTAPKLLIYSDSQRPSGVPDRFSGSKSGTSASLAISGLRSEDEADYYCATWDYSLSAYVFGGGTKLTVLG	69%	96.1%	92%	105%
SAIT-ANG-2-AB-4-F5 (scFv form) (scFv, V domains shown, scFv from a phage display library) VH: EVQLLESGGGLVQPGGSLRLSCAASGFTFSDYDMSWVRQAPGKGLEWVSSISHGDSNKYYADSVKGRFTISRDNSKNTLYLQMNSLRAEDTAVYYCAKSSGIQESPPTYYYYGMDVWGQGTLVTVSS VL: QSVLTQPPSASGTPGQRVTISCSGSSSNIGSNAVNWYQQLPGTAPKLLIYADSNRPSGVPDRFSGSKSGTSASLAISGLRSEDEADYYCGSWDYSLSGYVFGGGTKLTVLG	68.6%	21.8%	11.3%	259%
SAIT-ANG-2-AB-8-A5 (scFv form) (scFv, V domains shown, scFv from a phage display library) VH: EVQLLESGGGLVQPGGSLRLSCAASGFTFSDYYMSWVRQAPGKGLEWVSGIYPSGGSTYYADSVKGRFTISRDNSKNTLYLQMNSLRAEDTAVYYCARDPSTLTYAGFDYWGQGTLVTVSS VL: QSVLTQPPSASGTPGQRVTISCSGSSSNIGNNYVTWYQQLPGTAPKLLIYADSHRPSGVPDRFSGSKSGTSASLAISGLRSEDEADYYCATWDYSLSGYVFGGGTKLTVLG	4%	91.6%	90.7%	102%
SAIT-ANG-2-AB-4-C11 (scFv form) (scFv, V domains shown, scFv from a phage display library) VH: EVQLLESGGGLVQPGGSLRLSCAASGFTFSDYAMSWVRQAPGKGLEWVSSIYPDDGNTYYADSVKGRFTISRDNSKNTLYLQMNSLRAEDTAVYYCARHTSHHTSIDGYYYYGMDGWGQGTLVTVSS VL: QSVLTQPPSASGTPGQRVTISCTGSSSNIGNNDVSWYQQLPGTAPKLLIYSDSKRPSGVPDRFSGSKSGTSASLAISGLRSEDEADYYCGSWDYSLSGYVFGGGTKLTVLG	7.2%	74.3%	81.7%	102%
